Results as given in patent publication US20170145086A1 (VISTERRA, published 2017).
“And” between values parts separate entries of the source, which are not always exact repeats. Equal values may be shown once.

T1: HA-GCN4 hAPRIL (amino acid residues 105-250) (human, UniProt O75888 105-250)
T1 construct: Bought (R&D Systems); also called HA-tagged GCN4 human APRIL; HA-GCN4-huAPRIL; not shown: N-terminal HA tag; GCN4 isoleucine zipper oligomerization domain
T1 sequence: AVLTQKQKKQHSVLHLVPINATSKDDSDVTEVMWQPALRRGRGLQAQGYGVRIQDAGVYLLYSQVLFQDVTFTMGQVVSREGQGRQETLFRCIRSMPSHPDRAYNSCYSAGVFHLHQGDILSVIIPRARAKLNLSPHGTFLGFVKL


What was measured:
[1] = molecular target: T1, HA-GCN4 hAPRIL (amino acid residues …); experiment: indirect ELISA on HA-GCN4 human APRIL, 3-parameter fit
Procedure: FIG. 5 depicts the binding of anti-APRIL antibodies to human APRIL. Relative binding of select anti-APRIL antibodies was measured by indirect ELISA. Select antibodies based on prior hybridoma screening were recombinantly produced (based on immunoglubin VH and VL gene sequencing) as described. HA-tagged GCN4 human APRIL R&D Systems was used as source of APRIL. Binding data was analyzed by non-linear regression using a three parameter fit.
(§1) Purified antibodies were further characterized for APRIL binding, APRIL species cross reactivity (human APRIL vs. mouse APRIL), and receptor blocking activity using TACI-Fc. For binding, an APRIL-based indirect ELISA was used to determine by first approximation the relative affinity of purified anti-APRIL antibodies to either human APRIL or mouse APRIL. ELISA method was as generally described above. […] Blocking and wash steps were completed as described. Binding of anti-APRIL antibodies to APRIL was quantified using an 8 point dilution of test antibody that spanned over a four log scale. Antibody binding to APRIL was detected using a rabbit anti-mouse IgG (H+L)-HRP conjugate (Jackson ImmunoResearch Laboratories). Antibody binding data was analyzed by non-linear regression analysis using a 3 parameter fit to determine max binding and apparent EC₅₀ values. […] Mouse specific antibody Apry-1-1 (Adipogen) was likewise used for quantification of antibody binding to mouse APRIL.

[2] = molecular target: T1, HA-GCN4 hAPRIL (amino acid residues …); experiment: blocking ELISA; blocked: human APRIL binding to human BCMA-Fc; parameters: concentration or dose not given beside the values
Procedure: (§2) Recombinant TACI-Fc or BCMA-Fc was coated on 96 well plates in 0.1 M carbonate-bicarbonate buffer (pH 9.6), overnight at 4° C. Plates were washed three times with 1×PBST (PBS+0.025% Tween 20) followed by blocking with 1% BSA in 1×PBS, 37° C. for 1 hour. All subsequent wash steps were carried out with 1×PBST. To assess antibody blocking, either 15 ng/mL or 50 ng/mL HA-GCN4-huAPRIL was preincubated with varying antibody concentrations ranging from 0.03-30 μg/mL in binding buffer comprised of 1% BSA and 0.025% Tween-20 in 1×PBS. Preincubation was carried out at 30° C. for 1 hour with mixing. Antibody-APRIL premix with 50 ng/mL APRIL or 15 ng/mL APRIL was then added to TACI-Fc coated or BCMA-Fc coated plates, respectively, and incubated for an additional hour at 30° C. HA-tagged APRIL binding to either receptor was quantified using a goat polyclonal anti-HA tag-HRP antibody (Abcam) added at a 1:10000 dilution followed by colorimetric development using 100 μl/well of freshly prepared TMB substrate (KPL) carried out for up to 30 minutes at room temperature before quenching enzymatic reaction by the addition of 1N sulfuric acid. ELISA signal was quantified by absorbance at 450 nm. ELISA data was analyzed by non-linear regression. IC₅₀ values were calculated based on a 4 parameter fit of antibody titration curves. […] Non-blocking antibodies Aprly-1 or Aprly-5 (Enzo Biosciences) were used as negative controls. Mouse specific, blocking antibody aprily-1-1 (Adipogen) was generally used as a positive control in experiments using mouse APRIL (HA-GCN4-mAPRIL).

[3] = molecular target: T1, HA-GCN4 hAPRIL (amino acid residues …); experiment: blocking ELISA; blocked: human APRIL binding to human TACI-Fc; parameters: concentration or dose not given beside the values
Procedure: as §2

[4] = molecular target: T1, HA-GCN4 hAPRIL (amino acid residues …); experiment: blocking ELISA, 4-parameter fit; blocked: human APRIL binding to human BCMA-Fc
Procedure: as §2

[5] = molecular target: T1, HA-GCN4 hAPRIL (amino acid residues …); experiment: blocking ELISA, 4-parameter fit; blocked: human APRIL binding to human TACI-Fc
Procedure: as §2

[6] = molecular target: T1, HA-GCN4 hAPRIL (amino acid residues …); experiment: cell-based or functional assay
[7] = molecular target: T1, HA-GCN4 hAPRIL (amino acid residues …); experiment: blocking ELISA; blocked: human APRIL binding to BCMA-Fc
Procedure, shortened: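 HA-GCN4-tagged human APRIL (15 ng/mL) preincubated 1 h at 30 °C with antibody (0.03–30 μg/mL), then added 1 h at 30 °C to plates coated with BCMA-Fc. Bound APRIL detected with anti-HA-HRP/TMB at 450 nm; IC₅₀ from 4-parameter fit of antibody titration curves.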

[8] = molecular target: T1, HA-GCN4 hAPRIL (amino acid residues …); experiment: blocking ELISA; blocked: human APRIL binding to TACI-Fc
[9] = molecular target: T1, HA-GCN4 hAPRIL (amino acid residues …); experiment: indirect ELISA on human APRIL; row printed 4504, legend paragraph 738 says 4540
[10] = molecular target: T1, HA-GCN4 hAPRIL (amino acid residues …); experiment: indirect ELISA on coated HA-GCN4 human APRIL; EC50 from non-linear regression
Source text: as §1

EC50 [1] | % Inhibition [2] [%] | % Inhibition [3] [%] | IC50 [4] [nM] | IC50 [5] [nM] | IC50 (inhibition of APRIL-mediated BCMA NFκB signaling) [6] [nM] | IC50 (inhibition of APRIL-mediated TACI NFκB signaling) [6] [nM] | IC50 [7] [nM] | Relative Activity (normalised to 2419) [7] | IC50 [8] [nM] | Relative Activity (normalised to 2419) [8] | EC50 [9] [nM] | EC50 [10] [nM] | Binder
0.058 µg/mL and 0.392 nM | 35 | 81 | 0.68 | 4.95 | – | – | – | – | – | – | – | – | monoclonal antibody 3530 (antibody, mouse IgG2, V domains shown) VH: QVQLQQSGAELVRPGASVKLSCKASGYTFTDHEMHWVRQTPVHGLEWIGVIDPDTGDTTYNQKFKGKATLTADKSSSTAYMDLRSLTSEDSAVFYCTRWTGGDYWGHGTTLTVSS VL: DAVMTQTPLSLSVTIGQPASISCKSSQSLLYSDGKTYLNWFQQRPGQSPKRLMYQVSKLDPGIPDRFSGSGSETDFTLKISRVEAEDLGVYYCLQGTYYPYTFGSGTKLEIK
– | – | – | – | – | ~0.81 | ~2.25 | 0.67 | 2.85 | 0.4 | 1.45 | 0.00139 | – | monoclonal antibody 4540 (antibody, V domains shown, mouse-derived) VH: QVQLQQSGPELVKPGASVKISCKASGYTFADYYINWVKQRPGQGLEWIGWIFPGSGSTYYNEKFKGKATLTVDKSSSTAYMLLSSLTSEDSAVYFCARGDSGRAMDYWGQGTSVTVSS VL: DIQMTQSPSSLSASLGGKVTITCKASQDINKYIAWYQHKPGKGPRLLIHYTSTLQSGIPSRFSGSGSGRDYSFSISNLEPEDNATYYCLQYDNLLTFGAGTKLELK
0.0126 µg/mL and 0.085 nM | 100 | 91 | 0.22 | 0.74 | – | – | – | – | – | – | – | < 0.2 | monoclonal antibody 2218 (antibody, mouse IgG2, V domains shown) VH: DVQLQESGPGLVKPSQSLSLTCSVTGYSITSGYYWNWIRQFPGNKLEWMGYISYDGYNNYNPSLKNRISITRDTSKNQFFLKLNSVTTEDTATYYCANYYDYEDWYFGVWGTGTTVTVSS VL: DIVLTQSPASLAMSLGKRATISCRASESVSIIGTNSIHWYQQKPGQPPKLLIYHASNLETGVPARFSGSGSRTDFTLTIDPVEEDDVAIYYCLQSRKIPYTFGGGTKLEIK
